Measured values from US20190247480A1.

Target: HLA-A3 (human)
Test: assembly assay, stabilisation of HLA-A3 in T2-A3 lysates, W6/32 immunoprecipitation

C50 value (peptide concentration required for half maximal recovery of class I MHC molecules)	Binder
> 40	RAGLQVRKNK [Rho1 (…), native RhoC-derived peptide]
4	RLGLQVRKNK [Rho1L2 (…), modified RhoC peptide with Leu at position 2]
